Source: publication PMC1839166, “Type III Effector Activation via Nucleotide Binding, Phosphorylation, and Host Target Interaction” (PLoS Pathogens, 2007)

Columns and labels:
[1] = target: T1, avirulence protein B (AvrB), wild type (Pseudomonas syringae pv. glycinea), P13835; assay: ITC; VP-ITC microcalorimeter; RIN4_(142–176) peptide (50 to 450 μM) titrated in 6-μl injections into 5 to 25 μM wild-type or variant AvrB, stirring at 255 rpm; wild-type AvrB 6 μM with full-length RIN4 120 μM; nonbinding confirmed at as much as 25 μM and 450 μM; settings: remark: other sources report otherwise
[2] = target: T1, avirulence protein B (AvrB), wild type …; assay: as above; settings: remark: other sources report otherwise; remark: listed apart in the source

T1 sequence (P13835 whole entry): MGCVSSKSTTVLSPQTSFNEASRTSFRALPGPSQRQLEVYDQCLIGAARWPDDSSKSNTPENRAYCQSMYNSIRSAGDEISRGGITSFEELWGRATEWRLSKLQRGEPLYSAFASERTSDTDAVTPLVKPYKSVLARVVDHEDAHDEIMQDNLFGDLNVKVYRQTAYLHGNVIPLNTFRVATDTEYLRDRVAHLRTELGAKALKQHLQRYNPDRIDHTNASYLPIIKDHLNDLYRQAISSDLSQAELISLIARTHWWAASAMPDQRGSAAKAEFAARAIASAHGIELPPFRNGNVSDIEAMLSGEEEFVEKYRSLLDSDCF

B1: full-length RIN4, Q8GYN5 1-211 (natural protein)
chain: MARSNVPKFGNWEAEENVPYTAYFDKARKTRAPGSKIMNPNDPEYNSDSQSQAPPHPPSSRTKPEQVDTVRRSREHMRSREESELKQFGDAGGSSNEAANKRQGRASQNNSYDNKSPLHKNSYDGTGKSRPKPTNLRADESPEKVTVVPKFGDWDENNPSSADGYTHIFNKVREERSSGANVSGSSRTPTHQSSRNPNNTSSCCCFGFGGK
Kd [1]: 4 µM
Kd [2]: 1000 nM
